* marks the point of attachment. Biotin = O=C1N[C@H]2[C@H](CS[C@H]2CCCCC(=O)*)N1
Key:
Experiment in all cases: SRU BIND biosensor, peptides captured on streptavidin plate
[1] = biological target: T1, myostatin artificial peptide No 17 (SGSGIAPKRYKANYCSGE) (HELM PEPTIDE1{[O=C1N[C@H]2[C@H](CS[C@H]2CCCCC(=O)[*:2])N1].S.G.S.G.I.A.P.K.R.Y.K.A.N.Y.C.S.G.E.[am]}$$$$V2.0; SMILES …)
T1 construct: also called Peptide 17
T1 peptide: SGSGIAPKRYKANYCSGE
Protocol: (§1) Work was carried out on an SRU BIND reader (SRU Biosystems). A streptavidin biosensor plate was washed, a baseline reading taken, and biotinylated peptides captured onto the streptavidin coated biosensor plate. The plate was washed again, and a new baseline reading taken, antibody was then added and binding monitored.

[2] = biological target: T2, myostatin artificial peptide No 5 (SGSGHSTESRCCRYPLTV) (cysteine pairing not given here)
T2 construct: also called Peptide 5
T2 peptide: Biotin-SGSGHSTESRCCRYPLTV-NH2
Protocol: as §1

[3] = biological target: T3, myostatin artificial peptide No 21 (SGSGNYCSGECEFVFLQK) (cysteine pairing not given here)
T3 construct: also called Peptide 21
T3 peptide: Biotin-SGSGNYCSGECEFVFLQK-NH2
Protocol: as §1

[4] = biological target: T4, myostatin artificial peptide No 25 (SGSGFVFLQKYPHTHLVH) (HELM PEPTIDE1{[O=C1N[C@H]2[C@H](CS[C@H]2CCCCC(=O)[*:2])N1].S.G.S.G.F.V.F.L.Q.K.Y.P.H.T.H.L.V.H.[am]}$$$$V2.0; SMILES …)
T4 construct: also called Peptide 25
T4 peptide: SGSGFVFLQKYPHTHLVH
Protocol: as §1

[5] = biological target: T5, myostatin artificial peptide No 37 (SGSGCCTPTKMSPINMLY) (cysteine pairing not given here)
T5 construct: also called Peptide 37
T5 peptide: Biotin-SGSGCCTPTKMSPINMLY-NH2
Protocol: as §1

[6] = biological target: T6, myostatin artificial peptide No 41 (SGSGPINMLYFNGKEQII) (HELM PEPTIDE1{[O=C1N[C@H]2[C@H](CS[C@H]2CCCCC(=O)[*:2])N1].S.G.S.G.P.I.N.M.L.Y.F.N.G.K.E.Q.I.I.[am]}$$$$V2.0; SMILES …)
T6 construct: also called Peptide 41
T6 peptide: SGSGPINMLYFNGKEQII
Protocol: as §1

[7] = biological target: T7, myostatin artificial peptide No 13 (SGSGEAFGWDWIIAPKRY) (HELM PEPTIDE1{[O=C1N[C@H]2[C@H](CS[C@H]2CCCCC(=O)[*:2])N1].S.G.S.G.E.A.F.G.W.D.W.I.I.A.P.K.R.Y.[am]}$$$$V2.0; SMILES …)
T7 construct: also called Peptide 13
T7 peptide: SGSGEAFGWDWIIAPKRY
Protocol: as §1

[8] = biological target: T8, myostatin artificial peptide No 33 (SGSGNPRGSAGPCCTPTK) (cysteine pairing not given here)
T8 construct: also called Peptide 33
T8 peptide: Biotin-SGSGNPRGSAGPCCTPTK-NH2
Protocol: as §1

[9] = biological target: T9, myostatin artificial peptide No 19 (SGSGRYKANYCSGECEFV) (cysteine pairing not given here)
T9 construct: also called Peptide 19
T9 peptide: Biotin-SGSGRYKANYCSGECEFV-NH2
Protocol: as §1

[10] = biological target: T10, myostatin artificial peptide No 39 (SGSGTKMSPINMLYFNGK) (HELM PEPTIDE1{[O=C1N[C@H]2[C@H](CS[C@H]2CCCCC(=O)[*:2])N1].S.G.S.G.T.K.M.S.P.I.N.M.L.Y.F.N.G.K.[am]}$$$$V2.0; SMILES …)
T10 construct: also called Peptide 39
T10 peptide: SGSGTKMSPINMLYFNGK
Protocol: as §1

[11] = biological target: T11, myostatin artificial peptide No 49 (SGSGGKIPAMVVDRCGCS) (cysteine pairing not given here)
T11 construct: also called Peptide 49
T11 peptide: Biotin-SGSGGKIPAMVVDRCGCS-OH
Protocol: as §1

[12] = biological target: T12, myostatin artificial peptide No 23 (SGSGGECEFVFLQKYPHT) (HELM PEPTIDE1{[O=C1N[C@H]2[C@H](CS[C@H]2CCCCC(=O)[*:2])N1].S.G.S.G.G.E.C.E.F.V.F.L.Q.K.Y.P.H.T.[am]}$$$$V2.0; SMILES …)
T12 construct: also called Peptide 23
T12 peptide: SGSGGECEFVFLQKYPHT
Protocol: as §1

[13] = biological target: T13, myostatin artificial peptide No 29 (SGSGHTHLVHQANPRGSA) (HELM PEPTIDE1{[O=C1N[C@H]2[C@H](CS[C@H]2CCCCC(=O)[*:2])N1].S.G.S.G.H.T.H.L.V.H.Q.A.N.P.R.G.S.A.[am]}$$$$V2.0; SMILES …)
T13 construct: also called Peptide 29
T13 peptide: SGSGHTHLVHQANPRGSA
Protocol: as §1

[14] = biological target: T14, myostatin artificial peptide No 45 (SGSGGKEQIIYGKIPAMV) (HELM PEPTIDE1{[O=C1N[C@H]2[C@H](CS[C@H]2CCCCC(=O)[*:2])N1].S.G.S.G.G.K.E.Q.I.I.Y.G.K.I.P.A.M.V.[am]}$$$$V2.0; SMILES …)
T14 construct: also called Peptide 45
T14 peptide: SGSGGKEQIIYGKIPAMV
Protocol: as §1

[15] = biological target: T15, myostatin artificial peptide No 11 (SGSGTVDFEAFGWDWIIA) (HELM PEPTIDE1{[O=C1N[C@H]2[C@H](CS[C@H]2CCCCC(=O)[*:2])N1].S.G.S.G.T.V.D.F.E.A.F.G.W.D.W.I.I.A.[am]}$$$$V2.0; SMILES …)
T15 construct: also called Peptide 11
T15 peptide: SGSGTVDFEAFGWDWIIA
Protocol: as §1

[16] = biological target: T16, myostatin artificial peptide No 3 (SGSGDCDEHSTESRCCRY) (cysteine pairing not given here)
T16 construct: also called Peptide 3
T16 peptide: Biotin-SGSGDCDEHSTESRCCRY-NH2
Protocol: as §1

[17] = biological target: T17, myostatin artificial peptide No 47 (SGSGIIYGKIPAMVVDRC) (HELM PEPTIDE1{[O=C1N[C@H]2[C@H](CS[C@H]2CCCCC(=O)[*:2])N1].S.G.S.G.I.I.Y.G.K.I.P.A.M.V.V.D.R.C.[am]}$$$$V2.0; SMILES …)
T17 construct: also called Peptide 47
T17 peptide: SGSGIIYGKIPAMVVDRC
Protocol: as §1

Measured: binding result

B1: mouse monoclonal antibody 10B3 (antibody, mouse IgG2a, V domains shown)
VH: EVQLQQSGPELVKPGASVKISCKASGYSFTGYFMHWVKQSHGNILDWIGNIYPYNGVSNYNQRFKAKATLTVDKSSSTAYMELRSLTSEDSAVYYCARRYYYGTGPADWYFDVWGTGTTVTVSS
VL: DIKMTQSPSSMYASLRERVTITCKASQDINSYLSWFQQKPGKSPKTLIYRANRLVDGVPSRFSGSGSGQDYSLTISSLEYEDMGIYYCLQCDEFPLTFGAGTKLELK
notes: Murine IgG2a/k; also called 10B3 mouse parental; parental 10B3
no binding: [1] | [2] | [3] | [4] | [5] | [6] | [7] | [8] | [9] | [10] | [11] | [12] | [13] | [14] | [15] | [16] | [17]
